Laboratory results reported in patent US20170204158A1 (Regeneron, published 2017).
Where “and” joins values, the source holds several entries; their conditions need not be identical. Equal entries are not always repeated.

T1: human IL-33 (R&D Systems, # 3625-IL-010/CF) (human, UniProt O95760 112-270, biotinylated in the blocking ELISA of Example 3 (sites not given))
T1 sequence (looked up): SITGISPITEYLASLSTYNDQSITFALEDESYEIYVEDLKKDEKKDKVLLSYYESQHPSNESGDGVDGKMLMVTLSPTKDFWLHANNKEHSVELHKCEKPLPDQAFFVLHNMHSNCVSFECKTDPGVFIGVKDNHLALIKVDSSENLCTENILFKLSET

T2: mouse IL-33 (R&D Systems, # 3626-ML-010/CF) (mouse, UniProt Q8BVZ5 109-266)
T2 sequence (looked up): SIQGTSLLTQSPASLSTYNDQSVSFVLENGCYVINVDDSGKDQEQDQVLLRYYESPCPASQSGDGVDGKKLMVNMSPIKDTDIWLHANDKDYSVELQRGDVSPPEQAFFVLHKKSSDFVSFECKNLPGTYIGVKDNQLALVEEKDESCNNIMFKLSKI

T3: human ST2 (amino acids 1-556 of accession number NP_057316) on HEK293/hST2/NFkB-luciferase cells (human, UniProt Q01638 19-556)
T3 sequence (looked up): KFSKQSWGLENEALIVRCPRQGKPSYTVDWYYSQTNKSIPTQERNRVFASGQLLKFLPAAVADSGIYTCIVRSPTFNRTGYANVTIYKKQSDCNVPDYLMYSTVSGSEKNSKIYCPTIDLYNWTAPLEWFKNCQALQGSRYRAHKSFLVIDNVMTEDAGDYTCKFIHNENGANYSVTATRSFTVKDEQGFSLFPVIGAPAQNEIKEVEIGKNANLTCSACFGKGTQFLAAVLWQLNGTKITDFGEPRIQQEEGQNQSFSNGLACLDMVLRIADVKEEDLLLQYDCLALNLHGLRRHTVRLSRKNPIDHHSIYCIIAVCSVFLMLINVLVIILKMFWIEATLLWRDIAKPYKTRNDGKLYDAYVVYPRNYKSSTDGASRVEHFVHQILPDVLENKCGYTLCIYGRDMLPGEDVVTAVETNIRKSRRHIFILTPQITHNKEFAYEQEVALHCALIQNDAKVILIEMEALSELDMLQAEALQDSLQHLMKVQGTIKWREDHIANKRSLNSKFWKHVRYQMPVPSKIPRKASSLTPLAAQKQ

B1: mST2-mIL1RAcP-mFc (Fc fusion)
chain: SKSSWGLENEALIVRCPQRGRSTYPVEWYYSDTNESIPTQKRNRIFVSRDRLKFLPARVEDSGIYACVIRSPNLNKTGYLNVTIHKKPPSCNIPDYLMYSTVRGSDKNFKITCPTIDLYNWTAPVQWFKNCKALQEPRFRAHRSYLFIDNVTHDDEGDYTCQFTHAENGTNYIVTATRSFTVEEKGFSMFPVITNPPYNHTMEVEIGKPASIACSACFGKGSHFLADVLWQINKTVVGNFGEARIQEEEGRNESSSNDMDCLTSVLRITGVTEKDLSLEYDCLALNLHGMIRHTIRLRRKQPIDHRSERCDDWGLDTMRQIQVFEDEPARIKCPLFEHFLKYNYSTAHSSGLTLIWYWTRQDRDLEEPINFRLPENRISKEKDVLWFRPTLLNDTGNYTCMLRNTTYCSKVAFPLEVVQKDSCFNSAMRFPVHKMYIEHGIHKITCPNVDGYFPSSVKPSVTWYKGCTEIVDFHNVLPEGMNLSFFIPLVSNNGNYTCVVTYPENGRLFHLTRTVTVKVVGSPKDALPPQIYSPNDRVVYEKEPGEELVIPCKVYFSFIMDSHNEVWWTIDGKKPDDVTVDITINESVSYSSTEDETRTQILSIKKVTPEDLRRNYVCHARNTKGEAEQAAKVKQKVIPPRYTVESGEPRGPTIKPCPPCKCPAPNLLGGPSVFIFPPKIKDVLMISLSPIVTCVVVDVSEDDPDVQISWFVNNVEVHTAQTQTHREDYNSTLRVVSALPIQHQDWMSGKEFKCKVNNKDLPAPIERTISKPKGSVRAPQVYVLPPPEEEMTKKQVTLTCMVTDFMPEDIYVEWTNNGKTELNYKNTEPVLDSDGSYFMYSKLRVEKKNWVERNSYSCSVVHEGLHNHHTTKSFSRTPGK
notes: also called fourth IL-33 antagonist; mouse IL-33 Trap
B2: hST2-mFc (Fc fusion)
chain: KFSKQSWGLENEALIVRCPRQGKPSYTVDWYYSQTNKSIPTQERNRVFASGQLLKFLPAAVADSGIYTCIVRSPTFNRTGYANVTIYKKQSDCNVPDYLMYSTVSGSEKNSKIYCPTIDLYNWTAPLEWFKNCQALQGSRYRAHKSFLVIDNVMTEDAGDYTCKFIHNENGANYSVTATRSFTVKDEQGFSLFPVIGAPAQNEIKEVEIGKNANLTCSACFGKGTQFLAAVLWQLNGTKITDFGEPRIQQEEGQNQSFSNGLACLDMVLRIADVKEEDLLLQYDCLALNLHGLRRHTVRLSRKNPIDHHSEPRGPTIKPCPPCKCPAPNLLGGPSVFIFPPKIKDVLMISLSPIVTCVVVDVSEDDPDVQISWFVNNVEVHTAQTQTHREDYNSTLRVVSALPIQHQDWMSGKEFKCKVNNKDLPAPIERTISKPKGSVRAPQVYVLPPPEEEMTKKQVTLTCMVTDFMPEDIYVEWTNNGKTELNYKNTEPVLDSDGSYFMYSKLRVEKKNWVERNSYSCSVVHEGLHNHHTTKSFSRTPGK
notes: also called second IL-33 antagonist; ST2 receptor protein
B3: monkey IL-33 expressed with C-terminal hexahistidine tag (MfIL-33-6His) (ligand)
chain: SITGISPITESLASLSTYNDQSITFALEDESYEIYVEDLKKDKKKDKVLLSYYESQHPSSESGDGVDGKMLMVTLSPTKDFWLQANNKEHSVELHKCEKPLPDQAFFVLHNRSFNCVSFECKTDPGVFIGVKDNHLALIKVDYSENLGSENILFKLSEILEHHHHHH

Experiments:
[1] = biological target: T1, human IL-33 (R&D Systems, # …); experiment: cell-based or functional assay
[2] = biological target: T2, mouse IL-33 (R&D Systems, # …); experiment: cell-based or functional assay
[3] = biological target: B3; experiment: cell-based or functional assay
[4] = biological target: T1, human IL-33 (R&D Systems, # …); experiment: SPR (Biacore T-200), 25 C; Fc fusion captured by anti-Fc antibody, IL-33 injected
Description: (§1) The Biacore sensor surface was first derivatized by amine coupling a polyclonal rabbit anti-mouse antibody (GE, # BR-1008-38) or with a monoclonal mouse anti-human Fc antibody (GE, # BR-1008-39) to capture IL-33 Trap and receptor proteins with a C-terminal mouse IgG2a Fc tag or a C-terminal human IgG1 Fc tag, respectively. Kinetic experiments were carried out in 0.01 M HEPES pH 7.4, 0.15 M NaCl, 3 mM EDTA, and 0.005% v/v Surfactant Tween-20 (HBST running buffer). Different concentrations of human IL-33, mouse IL-33 or MfIL-33-6His prepared in HBST running buffer (ranging from 60 nM to 27.4 pM, 3-fold dilutions, for Trap proteins and ranging from 60 nM to 0.25 nM, 3-fold dilutions, for ST2 receptor proteins) were injected over the captured IL-33 Trap and receptor protein surfaces at a flow rate of 50 μL/minute. Association of different IL-33 proteins to the different capture surfaces was monitored for 7 minutes for Trap proteins or 4 minutes for ST2 receptor proteins and their dissociation in HBST running buffer was monitored for 14 minutes for Trap proteins or 8 minutes for ST2 receptor proteins. Kinetic association (ka) and dissociation (kd) rate constants were determined by fitting the real-time binding sensorgrams to a 1:1 binding model using Scrubber 2.0c curve-fitting software. Binding dissociation equilibrium constants (KD) and dissociative half-lives (t½) were calculated from the kinetic rate constants as: […]

[5] = biological target: T1, human IL-33 (R&D Systems, # …); experiment: SPR (Biacore T-200), 37 C; Fc fusion captured by anti-Fc antibody, IL-33 injected
Description: as §1

[6] = biological target: T2, mouse IL-33 (R&D Systems, # …); experiment: SPR (Biacore T-200), 25 C; Fc fusion captured by anti-Fc antibody, mouse IL-33 injected
Description: as §1

[7] = biological target: T2, mouse IL-33 (R&D Systems, # …); experiment: SPR (Biacore T-200), 37 C; Fc fusion captured by anti-Fc antibody, mouse IL-33 injected
Description: as §1

[8] = biological target: B3; experiment: SPR (Biacore T-200), 25 C; Fc fusion captured by anti-Fc antibody, MfIL-33-6His injected
Description: as §1

[9] = biological target: B3; experiment: SPR (Biacore T-200), 37 C; Fc fusion captured by anti-Fc antibody, MfIL-33-6His injected
Description: as §1

[10] = biological target: T1, human IL-33 (R&D Systems, # …); experiment: competition ELISA; antagonist pre-mixed with 20 pM biotin-hIL-33, binding to plate-coated human ST2-Fc
Description: (§2) The ability of exemplary IL-33 antagonists of the invention to block human IL-33 (hIL-33) binding to the human ST2 receptor was measured using a competition sandwich ELISA. A portion of human ST2 protein ecto domain that was expressed with a C-terminal mouse Fc tag (SEQ ID NO:2) was coated at a concentration of 1 μg/mL in PBS buffer on a 96-well microtiter plate overnight at 4° C. […] Biotinylated hIL-33 protein (R&D systems, #3625-IL/CF) (biot-hIL-33) was added to achieve a constant final concentration of 20 pM to serial dilutions of IL-33 antagonists ranging from 0 to 100 nM. The mixture was incubated for 1 hour at room temperature (RT) before transfer to the hST2-hFc coated microtiter plates. After incubation for 1 hour at RT, the wells were then washed, and plate-bound biot-hIL-33 was detected with HRP-conjugated streptavidin (Thermo Scientific, # N200). All samples were developed with a TMB solution (BD biosciences, # 51-2607KC) to produce a colorimetric reaction and then quenched by acidification with 1M sulfuric acid before measuring absorbance at 450 nm on a Victor X5 plate reader (PerkinElmer). Data analysis was performed using a sigmoidal dose-response model within Prism™ software. […] Maximum blocking values represent the ability of the antagonists to block IL-33 binding relative to baseline. The absorbance measured at the constant amount of hIL-33 on the dose curve was defined as 0% blocking and the absorbance with no added IL-33 was defined as 100% blocking. The absorbance values of the wells containing the highest concentration tested for each antagonist were used to determine the maximum blocking percent.

[11] = biological target: T1, human IL-33 (R&D Systems, # …); experiment: competition ELISA; antagonist pre-mixed with 20 pM biotin-hIL-33, binding to plate-coated human ST2-Fc; highest concentration tested
Description: as §2

[12] = biological target: T3, human ST2 (amino acids 1-556 of …); experiment: cell-based or functional assay

Binder	IC50 (M), inhibition of 5 pM human IL-33 activation of HEK293/hST2/NFkB-luciferase cells [1] [M]	IC50 (M), inhibition of 30 pM mouse IL-33 activation of HEK293/hST2/NFkB-luciferase cells [2] [M]	IC50 (M), inhibition of 5 pM monkey IL-33 activation of HEK293/hST2/NFkB-luciferase cells [3] [M]	60 nM Human IL-33 Bound (RU) [4] [RU]	Kd [4] [nM]	koff [4] [s⁻¹]	kon [4] [M⁻¹ s⁻¹]	t1/2 [4] [min]	60 nM Mouse IL-33 Bound (RU) [6] [RU]	Kd [6] [nM]	koff [6] [s⁻¹]	kon [6] [M⁻¹ s⁻¹]	t1/2 [6] [min]	IC50 [10] [nM]	% Maximum blocking [11] [%]	also measured
B1	4.8e-10	8.7e-12	6.4e-11	22	0.0709	0.00129	1.82e+07	9	22	0.0105	4.94e-05	4.73e+06	234	0.112	97	60 nM Human IL-33 Bound (RU) [5]: 20 RU; Kd [5]: 0.353 nM; koff [5]: 0.00322 s⁻¹; kon [5]: 9.11e+06 M⁻¹ s⁻¹; t1/2 [5]: 4 min; 60 nM Mouse IL-33 Bound (RU) [7]: 20 RU; Kd [7]: 0.0213 nM; koff [7]: 0.000128 s⁻¹; kon [7]: 6e+06 M⁻¹ s⁻¹; t1/2 [7]: 90 min; 60 nM Monkey IL-33 Bound (RU) [8]: 23 RU; Kd [8]: 0.0535 nM; koff [8]: 0.000244 s⁻¹; kon [8]: 4.55e+06 M⁻¹ s⁻¹; t1/2 [8]: 47 min; 60 nM Monkey IL-33 Bound (RU) [9]: 21 RU; Kd [9]: 0.19 nM; koff [9]: 0.00117 s⁻¹; kon [9]: 6.16e+06 M⁻¹ s⁻¹; t1/2 [9]: 10 min
B2	1.2e-11	1.4e-10	5.5e-12	24	0.0536	0.000307	5.72e+06	38	18	0.0882	0.00035	3.97e+06	33	0.0169	100	–
B3	–	–	–	–	–	–	–	–	–	–	–	–	–	–	–	EC50 (M), activation of HEK293/hST2/NFkB-luciferase cells [12]: 1.7e-12 M and 1.3e-12 M
